In patent US20200087364A1 (IMMATICS BIOTECHNOLOGIES, published 2020) one finds peptide exchange yield data, which are given here for 27 molecules.

Where only a bound is given, the exact number is not on record here.

In this experiment the target is T1, HLA-A*01:01 (human).
T1 construct: MHC class I monomer first loaded with a UV-sensitive peptide (not identified) that is cleaved by UV irradiation and exchanged for the tested peptide; captured on streptavidin plates, detected with anti-β2m; also called peptide-receptive MHC molecules
The experiment in a line: UV-ligand exchange, anti-b2m ELISA. A digest of the protocol: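 Peptide–MHC complexes made by UV-ligand exchange of a UV-cleavable peptide; exchange yield measured by ELISA on streptavidin-coated plates, samples diluted 100-fold, 1 h 37 °C. Detection with 2 ug/ml HRP anti-β2m, TMB, A450; refolded HLA-A*02:01/MLA-001 monomer standards 15-500 ng/ml.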
In general terms: An ELISA detects its analyte on a solid surface through an enzyme-linked reagent.
With ESDEMENLLTY, the peptide exchange yield was 50 to 75%.
The same measure for TCSHTFVYY: 20 to 50%.
ATDMEGNLNY had a peptide exchange yield of 50 to 75%.
The same measure for QAMPSWPTAAY: 20 to 50%.
Under TLEDLDNLYNY stands 50 to 75%; under PSEVPVDSHYY, 50 to 75%.
Under YADIHGDLL stands 50 to 75%.
VLDFAPPGASAY displayed a peptide exchange yield of more than 75%.
Under YPDLSELLM stands 20 to 50%; under CGPNEINHFY, 20 to 50%.
The same measure for LMTVLLKY: 50 to 75%; for TEEKFVSY: 10 to 20%; for ETILVSSSY: 20 to 50%.
As to VLPHHSEGACVY, the peptide exchange yield was 50 to 75%.
Under HMLAAMAY stands 20 to 50%; under ENSIEDLQY, 50 to 75%; under LPAPGFLFY, 20 to 50%.
Under MMEMEGMY stands 50 to 75%.
The same measure for GQFTGTAGACRY: 20 to 50%; for QITSFASGTSY: 50 to 75%; for GQRLDEAMISY: 50 to 75%.
As for TTEMVSNESVDY, the peptide exchange yield is more than 75%.
Under AATVKSDIY stands 20 to 50%.
The same measure for IPQDECLRY: 50 to 75%; for YTSHEDIGY: more than 75%; for PSEVPVDSHY: more than 75%.
The same measure for TSDVTGSLTY: more than 75%.
